The results in this text go back to the FLAb antibody collection (doi:10.7554/elife.23156).

The target in one data set is fluorescein. Put plainly: Kd (Tite-Seq). The note with it: format: scFv 4-4-20, heavy + light.
Data set [1] in a line: yeast surface expression (ratio to wild type); higher = more expressed. The note with it: format: scFv 4-4-20, heavy + light.

B1: unnamed (protein)
chain 1: EVKLDETGGGLVQPGRPMKLSCVASGFEPQSPSPQNKRQSPEKGLEWVAQIRNKPYNYETYYSDSVKGRFTISRDDSKSSVYLQMNNLRVEDMGIYYCTAHETLLCCLWQGTSVTVS
chain 2: DVVMTQTPLSLPVSLGDQASISCRSSQSLVHSNGNTYLRWYLQKPGQSPKVLIYKVSNRFSGVPDRFSGSGSGTDFTLKISRVEAEDLGVYFCSQSTHVPWTFGGGTKLEIK
On to B1, for which the Kd with fluorescein was not below 10 µM. Moreover, the yeast surface expression in data set [1] is 0.444.

A word on the Kd: it is the concentration at which binding is half-saturated.
